One block for each binder: values may come before it.
Key:
KISS ME DEADLY 1 (KMD1) [1] = target: T1, KISS ME DEADLY 1 (KMD1) (Arabidopsis, UniProt Q9M8L2 1-354); experiment: BiFC with ARR fragments; the weaker of the two interactions
T1 construct: Full-length protein; also called At1g80440
T1 sequence (looked up): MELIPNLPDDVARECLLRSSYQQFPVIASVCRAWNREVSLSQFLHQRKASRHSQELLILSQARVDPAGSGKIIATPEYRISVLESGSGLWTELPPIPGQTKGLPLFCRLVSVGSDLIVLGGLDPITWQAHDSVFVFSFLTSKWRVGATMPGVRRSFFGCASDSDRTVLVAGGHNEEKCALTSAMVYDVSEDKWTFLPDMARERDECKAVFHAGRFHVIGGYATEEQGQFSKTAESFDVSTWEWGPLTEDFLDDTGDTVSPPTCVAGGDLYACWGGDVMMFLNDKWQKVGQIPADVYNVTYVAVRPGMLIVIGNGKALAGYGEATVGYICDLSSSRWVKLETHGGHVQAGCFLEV

KISS ME DEADLY 1 (KMD1) [2] = target: T1, KISS ME DEADLY 1 (KMD1); experiment: yeast two-hybrid (LexA-KMD bait, X-gal)
Source text: (§1) The DUPLEX-A™ system (OriGene Technologies) was used for yeast two-hybrid analysis of interactions. KMD cDNAs were cloned into the pGilda bait vector, which produces an in-frame fusion with the LexA DNA-binding domain. Type-B ARR coding sequences were cloned into the pJG4-5 prey vector, which produces a B42 activation domain. The yeast strain EGY48 (MATa, trp1, his3, ura3, leu2::6 LexAop-LEU2) that contains the lacZ reporter plasmid pSH18-34 was transformed with the appropriate “bait” and “prey” plasmids. Interactions were tested on 5-bromo-4-chloro-3-indolyl-p-D-galactopyranoside (X-gal) medium (Ryu, et al. (2005) Cell 120(3): 395-406).
(§2) The KMD proteins also interacted with ARR20 (type-B ARR subfamily-3), but not with ARR19 (subfamily-2) and ARR21 (subfamily-3). […] All four KMD proteins interacted with both ARR1 and ARR12 in a BiFC assay. Strong fluorescence was detected in the nuclei of cells, consistent with the subcellular localization of the type-B ARRs (Hwang & Sheen J (2001) Nature 413(6854):383-389; Mason, et al. (2004) Plant Physiol. 135(2):927-937).

KISS ME DEADLY 2 (KMD2) = target: T2, KISS ME DEADLY 2 (KMD2) (Arabidopsis, UniProt Q9LMR5 1-359); experiment: yeast two-hybrid (LexA-KMD bait, X-gal)
T2 construct: Full-length protein; LexA fusion in yeast two-hybrid, YFP^N or YFP^C fusion in BiFC; also called At1g15670
T2 sequence (looked up): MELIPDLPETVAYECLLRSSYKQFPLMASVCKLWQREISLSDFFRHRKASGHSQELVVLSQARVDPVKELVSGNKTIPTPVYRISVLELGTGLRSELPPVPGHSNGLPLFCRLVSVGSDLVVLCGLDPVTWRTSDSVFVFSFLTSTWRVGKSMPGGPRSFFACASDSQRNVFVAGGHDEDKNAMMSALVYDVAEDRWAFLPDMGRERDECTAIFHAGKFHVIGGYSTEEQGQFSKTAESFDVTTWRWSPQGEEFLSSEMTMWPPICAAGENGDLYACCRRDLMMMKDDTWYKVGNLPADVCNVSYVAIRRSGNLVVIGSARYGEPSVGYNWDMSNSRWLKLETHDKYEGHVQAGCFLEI
Source text: as §1, §2

KISS ME DEADLY 4 (KMD4) = target: T3, KISS ME DEADLY 4 (KMD4) (Arabidopsis, UniProt Q9M1Y1 1-418); experiment: yeast two-hybrid (LexA-KMD bait, X-gal)
T3 construct: Full-length protein; LexA fusion in yeast two-hybrid, YFP^N or YFP^C fusion in BiFC; also called At3g59940
T3 sequence (looked up): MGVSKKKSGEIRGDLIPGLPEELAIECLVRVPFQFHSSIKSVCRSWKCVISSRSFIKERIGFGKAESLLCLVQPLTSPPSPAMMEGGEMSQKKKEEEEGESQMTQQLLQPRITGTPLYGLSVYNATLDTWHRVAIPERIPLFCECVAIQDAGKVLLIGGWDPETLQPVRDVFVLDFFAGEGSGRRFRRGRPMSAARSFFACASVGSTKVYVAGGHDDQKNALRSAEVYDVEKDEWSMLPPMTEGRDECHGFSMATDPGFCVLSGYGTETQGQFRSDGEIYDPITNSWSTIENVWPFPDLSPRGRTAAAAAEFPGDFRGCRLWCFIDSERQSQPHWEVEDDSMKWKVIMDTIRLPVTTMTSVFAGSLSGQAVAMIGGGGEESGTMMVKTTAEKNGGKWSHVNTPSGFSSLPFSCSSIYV
Source text: as §1, §2

KISS ME DEADLY 3 (KMD3) = target: T4, KISS ME DEADLY 3 (KMD3) (Arabidopsis, UniProt O80582 1-409); experiment: yeast two-hybrid (LexA-KMD bait, X-gal)
T4 construct: Full-length protein; LexA fusion in yeast two-hybrid, YFP^N or YFP^C fusion in BiFC; also called At2g44130
T4 sequence (looked up): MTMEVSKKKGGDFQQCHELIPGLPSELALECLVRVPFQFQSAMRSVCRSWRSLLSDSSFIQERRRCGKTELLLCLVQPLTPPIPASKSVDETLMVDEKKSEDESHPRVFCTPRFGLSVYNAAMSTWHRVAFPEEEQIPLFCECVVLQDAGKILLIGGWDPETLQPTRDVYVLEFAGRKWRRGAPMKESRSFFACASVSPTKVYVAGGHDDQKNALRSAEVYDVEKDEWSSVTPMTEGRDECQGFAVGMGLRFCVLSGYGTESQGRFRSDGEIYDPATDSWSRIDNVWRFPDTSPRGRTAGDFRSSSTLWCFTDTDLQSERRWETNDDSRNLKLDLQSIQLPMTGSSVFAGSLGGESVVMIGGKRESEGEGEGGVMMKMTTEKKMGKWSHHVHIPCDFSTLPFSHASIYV
Source text: as §1, §2

ARR12 = target: T5, ARR12 (Arabidopsis, UniProt P62598 1-596); experiment: yeast two-hybrid
T5 construct: YFP^N or YFP^C fusion of the full-length cDNA in BiFC; also called AtARR12; type-B response regulator AtARR12
T5 sequence (looked up): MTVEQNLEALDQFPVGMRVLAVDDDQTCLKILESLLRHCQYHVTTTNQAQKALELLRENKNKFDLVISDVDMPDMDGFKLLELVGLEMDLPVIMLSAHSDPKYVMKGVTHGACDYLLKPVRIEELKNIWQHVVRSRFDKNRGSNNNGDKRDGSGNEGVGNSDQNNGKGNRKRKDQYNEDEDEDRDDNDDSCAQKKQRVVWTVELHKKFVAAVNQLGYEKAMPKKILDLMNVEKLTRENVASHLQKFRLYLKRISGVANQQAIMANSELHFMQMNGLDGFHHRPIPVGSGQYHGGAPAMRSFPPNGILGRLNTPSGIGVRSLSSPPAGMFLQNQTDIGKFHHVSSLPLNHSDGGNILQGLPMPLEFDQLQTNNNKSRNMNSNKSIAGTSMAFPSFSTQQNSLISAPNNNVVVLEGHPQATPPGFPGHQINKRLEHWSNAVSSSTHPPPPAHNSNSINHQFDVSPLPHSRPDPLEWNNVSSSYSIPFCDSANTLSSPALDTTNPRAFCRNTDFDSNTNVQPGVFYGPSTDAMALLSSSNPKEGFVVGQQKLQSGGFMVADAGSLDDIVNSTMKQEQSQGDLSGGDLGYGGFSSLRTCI

binding result (KISS ME DEADLY 1 (KMD1) [1]): binds
B1: ARR12 (1-134) (other, Arabidopsis, UniProt P62598 1-134, looked up)
chain: MTVEQNLEALDQFPVGMRVLAVDDDQTCLKILESLLRHCQYHVTTTNQAQKALELLRENKNKFDLVISDVDMPDMDGFKLLELVGLEMDLPVIMLSAHSDPKYVMKGVTHGACDYLLKPVRIEELKNIWQHVVR
notes: range 1-134; Fused to a YFP fragment for BiFC; also called receiver domain of ARR12

binding result (KISS ME DEADLY 1 (KMD1) [2]): no binding
binding result (KISS ME DEADLY 2 (KMD2)): no binding
binding result (KISS ME DEADLY 4 (KMD4)): no binding
binding result (KISS ME DEADLY 3 (KMD3)): no binding
B2: ARR4 (type-A ARR) (other, Arabidopsis, UniProt O82798 1-259, looked up)
chain: MARDGGVSCLRRSEMMSVGGIGGIESAPLDLDEVHVLAVDDSLVDRIVIERLLRITSCKVTAVDSGWRALEFLGLDNEKASAEFDRLKVDLIITDYCMPGMTGYELLKKIKESSNFREVPVVIMSSENVLTRIDRCLEEGAQDFLLKPVKLADVKRLRSHLTKDVKLSNGNKRKLPEDSSSVNSSLPPPSPPLTISPESSPPLTVSTESSDSSPPLSPVEIFSTSPLSSPIDDEDDDVLTSSSEESPIRRQKMRSPGLD
notes: Prey in yeast two-hybrid

binding result (ARR12): binds
B3: OsKMD2 (other)
chain: MGYNELIPGLPEEVARECLIRVGFDQLPAVRRISRQWKAEVESPAYNRLRKAEGLARPALALVQARRELAEAGPAADKQSSAGGVPGNSYRMVLLDPAEGRWTPLPEVGGASGSLPLFCQVAAVDGGVEGRKRLVVVGGWDPETWAPTDSVLVYDFLTGAWRRGAAMPGPRRSFFACAAVGGKVFVAGGHDEEKNALRSALAYDPDADAWAALPDMAEERDEPRGLCVDGKFLVVGGYPTPAQGRFVGSAEWFDPATSTWSAVQEGFVDDGACPRTCSAAPEAGDRMYMLRDGHLVARHGAISSAPAAWRPVAPVPEDARTAAAVSVIPDGRVVVIGSDCHGGDQTVYTLREEAGKPASWARAPAPPEFSGHVQAACLLEI
notes: Tested in yeast two-hybrid; The fusion partner (LexA bait as for the Arabidopsis KMDs) is not restated for OsKMD2; also called rice KMD2; Os06g39370
